The data set has as its system Escherichia coli TOP10. Put plainly: shrunken log2 fold change of peptide-encoding DNA abundance (4.5 h post-induction vs induction); higher = less antimicrobial activity (less host growth inhibition). The conditions noted are these: time post-induction: 4.5 h; library: site-saturation at positions 5, 18, 19, 20.
RRIRYRPPRLPRPRPRPAYPPRP: the “shrunken log2 fold change” value was -0.422. The same measure for RRIRHRPPRLPRPRPRPPGGPRP: 0.443; for RRIRERPPRLPRPRPRPSCEPRP: -0.668; for RRIRSRPPRLPRPRPRPHNDPRP: -0.309. With RRIRYRPPRLPRPRPRPWYVPRP the figure was -1.13. With RRIRCRPPRLPRPRPRPLSIPRP the figure was -0.917; with RRIRQRPPRLPRPRPRPWIRPRP, -0.166. Turning to RRIRLRPPRLPRPRPRPRNCPRP, the “shrunken log2 fold change” value was -0.51. Turning to RRIRDRPPRLPRPRPRPIIFPRP, the “shrunken log2 fold change” value was -0.00292. For the sequence RRIRPRPPRLPRPRPRPNGIPRP, the “shrunken log2 fold change” value is -0.153.

As to RRIRHRPPRLPRPRPRPQSPPRP, the “shrunken log2 fold change” value amounted to 0.0863. With RRIRVRPPRLPRPRPRPCTRPRP the figure was -0.214. The same measure for RRIRQRPPRLPRPRPRPKAQPRP: 0.0112; for RRIRQRPPRLPRPRPRPQAVPRP: 0.00748; for RRIRSRPPRLPRPRPRPRLIPRP: 0.288. The same measure for RRIRFRPPRLPRPRPRPCLGPRP: -0.201.

On to RRIRKRPPRLPRPRPRPLMNPRP, for which the “shrunken log2 fold change” value came to 0.158. Turning to RRIRMRPPRLPRPRPRPLAQPRP, the “shrunken log2 fold change” value was found to be 0.634.

Take RRIRTRPPRLPRPRPRPDCNPRP: the “shrunken log2 fold change” value was 0.0556. With RRIRQRPPRLPRPRPRPFHYPRP the figure was -0.996; with RRIRPRPPRLPRPRPRPVALPRP, 0.0375. The same measure for RRIRSRPPRLPRPRPRPMLKPRP: -0.0793; for RRIRERPPRLPRPRPRPFMVPRP: -0.599. With RRIRSRPPRLPRPRPRPLWPPRP the figure was 0.229; with RRIRGRPPRLPRPRPRPDETPRP, 0.349.

Turning to RRIRARPPRLPRPRPRPYKCPRP, the “shrunken log2 fold change” value is -0.138.

For the sequence RRIRQRPPRLPRPRPRPKWAPRP, the “shrunken log2 fold change” value is -0.0411.

For RRIRKRPPRLPRPRPRPGDDPRP, the “shrunken log2 fold change” value is 0.758.

For RRIRARPPRLPRPRPRPLWMPRP, the “shrunken log2 fold change” value was 0.264. With RRIRARPPRLPRPRPRPCPCPRP the figure was -0.0932; with RRIRPRPPRLPRPRPRPNHEPRP, -0.419; with RRIRTRPPRLPRPRPRPNTFPRP, -0.668. The same measure for RRIRQRPPRLPRPRPRPRNCPRP: 5; for RRIRCRPPRLPRPRPRPWDRPRP: -0.608. With RRIRCRPPRLPRPRPRPLQKPRP the figure was -0.0859. For the sequence RRIRSRPPRLPRPRPRPAAQPRP, the “shrunken log2 fold change” value came to 0.833. The same measure for RRIRSRPPRLPRPRPRPLFRPRP: -0.368; for RRIRPRPPRLPRPRPRPCNYPRP: -0.152; for RRIRNRPPRLPRPRPRPNDAPRP: -0.221. With RRIRSRPPRLPRPRPRPQYCPRP the figure was -0.0172; with RRIRIRPPRLPRPRPRPCGWPRP, 0.0831. With RRIRVRPPRLPRPRPRPIQKPRP the figure was -0.017; with RRIRFRPPRLPRPRPRPGCPPRP, 0.00835. In the case of RRIRMRPPRLPRPRPRPCMWPRP, the “shrunken log2 fold change” value was 0.138. With RRIRLRPPRLPRPRPRPVQEPRP the figure was -0.0609; with RRIRMRPPRLPRPRPRPDANPRP, 3.18. With RRIRIRPPRLPRPRPRPVYLPRP, the “shrunken log2 fold change” value is -0.0309. With RRIRVRPPRLPRPRPRPRPNPRP the figure was 0.381. RRIRARPPRLPRPRPRPVSKPRP: the “shrunken log2 fold change” value was 0.141. Take RRIRPRPPRLPRPRPRPNHGPRP: the “shrunken log2 fold change” value was -0.0975. With RRIRVRPPRLPRPRPRPDKRPRP, the “shrunken log2 fold change” value was 0.0226. The same measure for RRIRSRPPRLPRPRPRPAYKPRP: -0.136. The same measure for RRIRDRPPRLPRPRPRPAEMPRP: 0.515; for RRIRTRPPRLPRPRPRPEEEPRP: 0.385. For the sequence RRIRHRPPRLPRPRPRPLKCPRP, the “shrunken log2 fold change” value is -0.024.

With RRIRRRPPRLPRPRPRPMCIPRP, the “shrunken log2 fold change” value was -0.182. RRIRMRPPRLPRPRPRPGDEPRP: the “shrunken log2 fold change” value amounted to 0.818. The same measure for RRIRFRPPRLPRPRPRPFEYPRP: -0.281; for RRIRNRPPRLPRPRPRPIYFPRP: -0.767. For RRIRMRPPRLPRPRPRPGGFPRP, the “shrunken log2 fold change” value amounted to 1.06. The same measure for RRIRQRPPRLPRPRPRPHPDPRP: -0.0624; for RRIRWRPPRLPRPRPRPEYAPRP: 0.467; for RRIRSRPPRLPRPRPRPAYWPRP: 0.259.

Regarding RRIRWRPPRLPRPRPRPTLQPRP, the “shrunken log2 fold change” value was 0.253. With RRIRSRPPRLPRPRPRPKVSPRP the figure was 0.21; with RRIRKRPPRLPRPRPRPQHTPRP, 0.0113; with RRIRSRPPRLPRPRPRPFEWPRP, 0.0589. The same measure for RRIRCRPPRLPRPRPRPEHDPRP: -0.131. The same measure for RRIRIRPPRLPRPRPRPCHHPRP: 0.0314. Consider RRIRYRPPRLPRPRPRPNMNPRP, for which the “shrunken log2 fold change” value is -0.882. With RRIRGRPPRLPRPRPRPCPWPRP the figure was -0.149; with RRIRFRPPRLPRPRPRPDIMPRP, -0.06; with RRIRDRPPRLPRPRPRPRKWPRP, -0.0062.

In the case of RRIRGRPPRLPRPRPRPLECPRP, the “shrunken log2 fold change” value was 0.447. RRIRDRPPRLPRPRPRPAAHPRP: the “shrunken log2 fold change” value came to 0.66.

Consider RRIRDRPPRLPRPRPRPLPSPRP, for which the “shrunken log2 fold change” value was -0.0341. With RRIRARPPRLPRPRPRPAWLPRP the figure was 0.597. The same measure for RRIRHRPPRLPRPRPRPYEVPRP: 0.028; for RRIRFRPPRLPRPRPRPHCKPRP: -0.112; for RRIRARPPRLPRPRPRPLYKPRP: -0.362. The same measure for RRIRVRPPRLPRPRPRPWCEPRP: -0.293; for RRIRARPPRLPRPRPRPKGSPRP: 0.199. With RRIRNRPPRLPRPRPRPPSSPRP, the “shrunken log2 fold change” value was -0.0814. The same measure for RRIRFRPPRLPRPRPRPQVRPRP: 0.305; for RRIRYRPPRLPRPRPRPLTIPRP: -0.0265.

With RRIRSRPPRLPRPRPRPDIRPRP, the “shrunken log2 fold change” value was -0.0108.

Regarding RRIRIRPPRLPRPRPRPFWTPRP, the “shrunken log2 fold change” value was -0.353.

Take RRIRKRPPRLPRPRPRPGRFPRP: the “shrunken log2 fold change” value was found to be 0.227. With RRIRVRPPRLPRPRPRPSQCPRP the figure was -0.187. With RRIRCRPPRLPRPRPRPQANPRP the figure was 0.0603; with RRIRWRPPRLPRPRPRPKNVPRP, -0.0641; with RRIRFRPPRLPRPRPRPWTMPRP, 0.0794. With RRIRVRPPRLPRPRPRPMFCPRP the figure was -0.0375. In the case of RRIRDRPPRLPRPRPRPAQFPRP, the “shrunken log2 fold change” value came to 0.442. Turning to RRIRQRPPRLPRPRPRPGLIPRP, the “shrunken log2 fold change” value was -0.118. The same measure for RRIRRRPPRLPRPRPRPNCEPRP: 0.227; for RRIRYRPPRLPRPRPRPCRMPRP: -0.0503; for RRIRERPPRLPRPRPRPLSLPRP: -0.371.

Turning to RRIRRRPPRLPRPRPRPLGFPRP, the “shrunken log2 fold change” value is 0.592. The same measure for RRIRLRPPRLPRPRPRPQSTPRP: -0.0595. On to RRIRDRPPRLPRPRPRPWSGPRP, for which the “shrunken log2 fold change” value is -0.0455. The same measure for RRIRERPPRLPRPRPRPSPMPRP: -0.0654; for RRIRARPPRLPRPRPRPERKPRP: 1.16; for RRIRQRPPRLPRPRPRPRCYPRP: 0.0331.

As for RRIRHRPPRLPRPRPRPTPRPRP, the “shrunken log2 fold change” value is 0.609. As to RRIRFRPPRLPRPRPRPDGGPRP, the “shrunken log2 fold change” value was -0.537. With RRIRDRPPRLPRPRPRPRGWPRP the figure was 1.35; with RRIRQRPPRLPRPRPRPTVKPRP, -0.096.

On to RRIRERPPRLPRPRPRPLDDPRP, for which the “shrunken log2 fold change” value is -0.234.

Consider RRIRLRPPRLPRPRPRPSVEPRP, for which the “shrunken log2 fold change” value came out at 0.0961. The same measure for RRIRHRPPRLPRPRPRPYLWPRP: 0.0116.

As to RRIRGRPPRLPRPRPRPVSPPRP, the “shrunken log2 fold change” value was 0.101.

In the case of RRIRRRPPRLPRPRPRPRWMPRP, the “shrunken log2 fold change” value stood at 0.25. The same measure for RRIRSRPPRLPRPRPRPNQWPRP: 0.0342. On to RRIRTRPPRLPRPRPRPQTGPRP, for which the “shrunken log2 fold change” value is -0.128. The same measure for RRIRDRPPRLPRPRPRPNEIPRP: -0.0208; for RRIRERPPRLPRPRPRPTGDPRP: 0.321; for RRIRWRPPRLPRPRPRPLPPPRP: 0.686.

Turning to RRIRLRPPRLPRPRPRPCTNPRP, the “shrunken log2 fold change” value was -0.094. The same measure for RRIRVRPPRLPRPRPRPKKSPRP: 0.585. With RRIRGRPPRLPRPRPRPQFFPRP the figure was -0.0486. Turning to RRIRCRPPRLPRPRPRPSERPRP, the “shrunken log2 fold change” value is -0.0162. With RRIRQRPPRLPRPRPRPMMEPRP the figure was 0.00908; with RRIRRRPPRLPRPRPRPAIHPRP, 0.131; with RRIRLRPPRLPRPRPRPFCQPRP, -0.078.

For the origin of these results see the supplement of paper PMC9112550, “Optimization of the antimicrobial peptide Bac7 by deep mutational scanning” (BMC Biology, 2022).
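Note: peptides expressed intracellularly from a pBAD plasmid library in pooled LB shake-flask culture, induced with 0.3% L-arabinose, DNA abundance read by NGS, three biological replicates, DESeq2 with apeglm shrinkage.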
